Here are results for one substance from PMC12285222.

The test concerns the target trypsin-processed Vip3Cb1 toxin (Paenibacillus sp. strain DSC004343). The experiment in a line: cryo-EM structure.

By stoichiometry N is commonly meant a count of units in the complex or per binding partner. As for “trypsin-processed Vip3Cb1 toxin (complex)”, the stoichiometry N was determined as 4.
